Results on three compounds are retold here after PMC5707625 (Biochemistry, 2017).

For data set [1], the system named is O=C(Cc1cccs1)N[C@@H]1C(=O)N2C(C(=O)O)=C(/C=C/c3ccc([N+](=O)[O-])cc3[N+](=O)[O-])CS[C@H]12. In words: purified protein. Conditions: pH 6.0.
Data set [2] deals with T1, BlaC (Mycobacterium tuberculosis, UniProt P9WKD3). In words: biochemical. It is filed as binding.
In data set [3] the target is T1, BlaC. Nature of the data set: […] Å crystal structure. It is filed as binding.

In general, Km refers to the substrate concentration at which the rate is half of its maximum. A word on the kcat: it is the number of substrate molecules converted per active site and unit of time at saturation. A word on the kcat/Km: it is the second-order rate constant that governs catalysis at low substrate concentration. As a reminder, the Kd is the free concentration of one partner at which half of the binding sites on the other are occupied at equilibrium, for simple one-to-one binding.

T1 sequence (P9WKD3 43-307 limits assumed): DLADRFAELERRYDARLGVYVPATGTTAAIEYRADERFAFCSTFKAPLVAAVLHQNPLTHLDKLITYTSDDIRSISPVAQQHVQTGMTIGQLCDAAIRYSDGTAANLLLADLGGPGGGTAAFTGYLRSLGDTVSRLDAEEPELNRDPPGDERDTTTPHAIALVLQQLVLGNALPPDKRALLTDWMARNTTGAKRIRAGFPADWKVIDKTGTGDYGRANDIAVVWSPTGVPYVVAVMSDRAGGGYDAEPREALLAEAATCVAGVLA

With BlaC (Mycobacterium tuberculosis H37Rv), in data set [1], the Km was found to be 38 ± 7 µM, the kcat was found to be 69 ± 1 s⁻¹ and the kcat/Km amounted to 1.8e+06 ± 300000 M⁻¹ s⁻¹.

`O=P(O)(O)O` [phosphate] displayed a Kd at BlaC [2] of 27 ± 11 mM.

For the compound `CC(=O)O` [acetate], the “2.1 Å crystal structure” value on BlaC [3] was “acetate occupies the carboxylate binding site and forms hydrogen bridges with residues Ser-130, Thr-235, and Thr-237”.
